Consider 15 molecules from US20210023171A1 (published 2021).

Where a chain is given by its changes, count along the chain named. Where two headings read alike, the source gives them in different places. No end group written: not given here. *: point of attachment. DOTA = O=C(O)CN1CCN(CC(=O)O)CCN(CC(=O)*)CCN(CC(=O)O)CC1 Where only a bound is given, the exact number is not on record here.

The target in assay [1] is α5β1 integrin (detergent-solubilized) (UniProt P08648 42-1049; P05556 21-798). Put plainly: competition with ^125I-echistatin on plate-coated detergent-solubilized integrin.
Chain of α5β1 integrin (detergent-solubilized) (P08648 42-1049, chain 1 of 2): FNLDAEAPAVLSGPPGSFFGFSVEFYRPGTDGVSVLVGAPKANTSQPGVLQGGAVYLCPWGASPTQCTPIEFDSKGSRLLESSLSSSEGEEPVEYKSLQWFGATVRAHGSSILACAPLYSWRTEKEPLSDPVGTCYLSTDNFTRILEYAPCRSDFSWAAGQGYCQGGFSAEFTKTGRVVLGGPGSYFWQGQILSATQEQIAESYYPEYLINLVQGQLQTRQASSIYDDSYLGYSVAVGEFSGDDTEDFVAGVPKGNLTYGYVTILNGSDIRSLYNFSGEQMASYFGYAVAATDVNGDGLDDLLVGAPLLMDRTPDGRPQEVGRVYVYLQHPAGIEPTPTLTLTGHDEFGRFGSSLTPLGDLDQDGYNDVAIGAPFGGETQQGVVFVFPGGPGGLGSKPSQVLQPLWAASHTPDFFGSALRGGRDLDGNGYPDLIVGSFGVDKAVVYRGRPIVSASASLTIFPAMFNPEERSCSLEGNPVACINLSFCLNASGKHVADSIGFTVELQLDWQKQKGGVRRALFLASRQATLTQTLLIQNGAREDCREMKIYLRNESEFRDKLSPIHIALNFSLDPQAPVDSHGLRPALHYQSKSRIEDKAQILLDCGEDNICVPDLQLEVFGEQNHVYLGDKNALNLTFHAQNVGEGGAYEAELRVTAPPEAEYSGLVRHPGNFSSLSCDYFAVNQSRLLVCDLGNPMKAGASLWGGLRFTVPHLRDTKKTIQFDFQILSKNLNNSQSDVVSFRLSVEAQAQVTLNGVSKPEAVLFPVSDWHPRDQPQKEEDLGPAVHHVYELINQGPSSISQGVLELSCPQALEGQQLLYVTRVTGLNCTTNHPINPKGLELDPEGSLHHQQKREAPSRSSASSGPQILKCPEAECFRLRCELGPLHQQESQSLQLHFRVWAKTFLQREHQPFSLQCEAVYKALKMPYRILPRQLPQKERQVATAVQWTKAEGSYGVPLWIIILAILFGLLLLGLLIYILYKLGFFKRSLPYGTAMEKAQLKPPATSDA
Chain of α5β1 integrin (detergent-solubilized) (P05556 21-798, chain 2 of 2): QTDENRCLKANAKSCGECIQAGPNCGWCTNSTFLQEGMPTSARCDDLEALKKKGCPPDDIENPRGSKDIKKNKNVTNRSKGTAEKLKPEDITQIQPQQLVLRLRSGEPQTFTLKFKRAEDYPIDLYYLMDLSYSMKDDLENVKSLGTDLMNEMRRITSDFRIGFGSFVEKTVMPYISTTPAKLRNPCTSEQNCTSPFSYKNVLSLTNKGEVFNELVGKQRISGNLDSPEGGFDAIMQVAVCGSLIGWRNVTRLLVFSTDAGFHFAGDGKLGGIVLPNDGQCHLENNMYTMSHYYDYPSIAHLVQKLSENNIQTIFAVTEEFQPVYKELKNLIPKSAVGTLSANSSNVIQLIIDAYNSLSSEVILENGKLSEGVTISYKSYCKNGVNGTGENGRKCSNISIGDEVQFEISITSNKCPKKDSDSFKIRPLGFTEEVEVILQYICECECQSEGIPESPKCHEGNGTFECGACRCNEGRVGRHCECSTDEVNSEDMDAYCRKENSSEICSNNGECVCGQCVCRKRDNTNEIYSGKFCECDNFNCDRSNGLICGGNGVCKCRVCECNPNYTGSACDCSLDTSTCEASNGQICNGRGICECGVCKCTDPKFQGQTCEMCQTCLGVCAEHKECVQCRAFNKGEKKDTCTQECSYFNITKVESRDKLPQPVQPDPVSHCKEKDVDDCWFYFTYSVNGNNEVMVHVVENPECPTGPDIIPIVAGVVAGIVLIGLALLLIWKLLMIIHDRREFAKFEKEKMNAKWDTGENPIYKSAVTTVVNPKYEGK
The target of assay [2] is αiibβ3 integrin (soluble / detergent-solubilized) (UniProt P08514 32-1039; P05106 27-788). The assay is described as above.
Assay [3] has as its target T1, αvβ3 integrin (soluble / detergent-solubilized) (UniProt P06756 31-1048; P05106 27-788).
T1 construct: also called integrin αvβ3; soluble αvβ3 integrin
The description is as above.

Assay [4] addresses αvβ5 integrin (soluble / detergent-solubilized) (UniProt P06756 31-1048; P18084 24-799). The description is as above.
Assay [5] addresses T2, αvβ3 integrin on cells (U87MG glioblastoma cells; K562-αvβ3 cells) (UniProt P06756 31-1048; P05106 27-788).
T2 construct: whole, on cells; also called cell surface αvβ3 integrin
Put plainly: competition with ^125I-echistatin on U87MG cells.

Assay [6] concerns the target T2, αvβ3 integrin on cells (U87MG …).
The target is the same in assay [7]. Put plainly: cell-based or functional assay.
Assay [8] shares this target. Put plainly: cell-based or functional assay. This is another data set of the same source.
The target is the same in assay [9]. The experiment in a line: approximate value quoted with the imaging results; U87MG competition assay presumed.
For assay [10], the target named is T1, αvβ3 integrin (soluble / …). Put plainly: yeast display, flow cytometry, 50 nM integrin, gross estimate.
Assay [11] deals with T2, αvβ3 integrin on cells (U87MG …). Put plainly: competition with ^125I-echistatin on U87MG cells (also express αvβ5, α5β1); unlabeled peptide.
For assay [12], the target named is T1, αvβ3 integrin (soluble / …). The experiment in a line: yeast display flow cytometry estimate; integrin not given.
Assay [13] deals with T2, αvβ3 integrin on cells (U87MG …). Put plainly: competing off ^125I-echistatin, U87MG cells.
Assay [14] has the same target. Put plainly: competition on U87MG cells against 20 nM recombinant FLAG/His 7C, anti-FLAG flow cytometry. In general terms: In flow cytometry, cells or beads pass a laser one at a time.
The target is the same in assay [15]. Put plainly: competition of synthetic 7C by recombinant 7C on U87MG cells, performed analogously.
For assay [16] the target is unchanged. The experiment in a line: direct equilibrium titration on U87MG cells, anti-His flow cytometry.
The target of assay [17] is T3, αiibβ3 integrin on K562 cells stably transfected with αiibβ3 (UniProt P08514 32-1039; P05106 27-788).
T3 construct: whole, on cells; also called K562-αiibβ3; K562-αiiβ3
Put plainly: titration on K562-αiibβ3 cells up to 5 µM, not saturated.

Assay [18] has as its target T2, αvβ3 integrin on cells (U87MG …). The experiment in a line: direct equilibrium titration on K562-αvβ3 cells, anti-His flow cytometry.
Assay [19] shares this target. The experiment in a line: direct equilibrium titration on U87MG cells.

T2 sequence (P06756 31-1048, chain 1 of 2): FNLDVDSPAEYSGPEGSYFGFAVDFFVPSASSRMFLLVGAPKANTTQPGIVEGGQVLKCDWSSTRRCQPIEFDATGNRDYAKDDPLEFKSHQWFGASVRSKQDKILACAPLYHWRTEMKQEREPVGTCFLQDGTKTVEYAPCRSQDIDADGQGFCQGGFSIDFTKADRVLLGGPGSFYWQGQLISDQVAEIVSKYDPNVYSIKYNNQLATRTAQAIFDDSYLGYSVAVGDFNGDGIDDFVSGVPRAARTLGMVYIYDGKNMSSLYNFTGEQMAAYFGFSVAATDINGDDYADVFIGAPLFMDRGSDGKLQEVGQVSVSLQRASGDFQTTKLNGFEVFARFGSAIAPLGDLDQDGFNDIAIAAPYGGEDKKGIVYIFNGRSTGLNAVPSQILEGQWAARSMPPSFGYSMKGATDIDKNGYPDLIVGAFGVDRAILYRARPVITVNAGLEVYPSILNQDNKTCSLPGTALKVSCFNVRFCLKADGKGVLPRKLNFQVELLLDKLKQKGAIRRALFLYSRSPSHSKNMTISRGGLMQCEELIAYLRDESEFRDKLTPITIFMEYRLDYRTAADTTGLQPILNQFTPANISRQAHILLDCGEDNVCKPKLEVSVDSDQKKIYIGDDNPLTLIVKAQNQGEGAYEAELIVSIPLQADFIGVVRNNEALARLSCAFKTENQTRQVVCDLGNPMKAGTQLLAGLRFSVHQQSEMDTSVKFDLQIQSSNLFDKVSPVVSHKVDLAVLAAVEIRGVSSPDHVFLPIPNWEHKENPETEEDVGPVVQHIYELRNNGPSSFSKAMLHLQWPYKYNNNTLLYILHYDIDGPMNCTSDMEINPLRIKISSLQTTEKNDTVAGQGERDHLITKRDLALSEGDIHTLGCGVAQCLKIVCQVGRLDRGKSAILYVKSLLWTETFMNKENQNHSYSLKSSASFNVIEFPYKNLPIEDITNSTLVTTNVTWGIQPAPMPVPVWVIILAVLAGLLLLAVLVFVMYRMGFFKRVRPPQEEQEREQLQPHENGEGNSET
T2 sequence (P05106 27-788, chain 2 of 2): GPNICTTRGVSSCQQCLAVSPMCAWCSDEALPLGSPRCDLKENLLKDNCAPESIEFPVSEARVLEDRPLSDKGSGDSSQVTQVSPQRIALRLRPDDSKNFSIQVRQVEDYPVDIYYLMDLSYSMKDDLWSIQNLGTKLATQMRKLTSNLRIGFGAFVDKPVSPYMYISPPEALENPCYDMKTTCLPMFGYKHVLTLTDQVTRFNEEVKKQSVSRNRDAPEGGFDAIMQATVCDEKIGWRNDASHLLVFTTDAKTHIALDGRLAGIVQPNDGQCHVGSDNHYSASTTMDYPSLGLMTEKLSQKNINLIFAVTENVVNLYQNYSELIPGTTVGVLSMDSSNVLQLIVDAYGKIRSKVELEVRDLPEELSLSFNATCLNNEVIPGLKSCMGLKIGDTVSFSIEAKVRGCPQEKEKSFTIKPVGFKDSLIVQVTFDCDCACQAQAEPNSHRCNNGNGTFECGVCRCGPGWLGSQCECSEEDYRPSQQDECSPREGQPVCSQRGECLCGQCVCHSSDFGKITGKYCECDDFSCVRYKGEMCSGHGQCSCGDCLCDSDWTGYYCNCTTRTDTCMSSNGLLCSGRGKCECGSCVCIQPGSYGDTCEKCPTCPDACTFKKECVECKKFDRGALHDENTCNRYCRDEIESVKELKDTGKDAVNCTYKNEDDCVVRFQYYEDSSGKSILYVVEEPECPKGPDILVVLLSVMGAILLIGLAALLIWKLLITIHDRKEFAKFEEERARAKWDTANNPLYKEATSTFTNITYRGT
T1 sequence (P06756 31-1048, chain 1 of 2): as the sequence (P06756 31-1048, chain 1 of 2) above
T1 sequence (P05106 27-788, chain 2 of 2): as the sequence (P05106 27-788, chain 2 of 2) above
Chain of αvβ5 integrin (soluble / detergent-solubilized) (P06756 31-1048, chain 1 of 2): as the sequence (P06756 31-1048, chain 1 of 2) above
Chain of αvβ5 integrin (soluble / detergent-solubilized) (P18084 24-799, chain 2 of 2): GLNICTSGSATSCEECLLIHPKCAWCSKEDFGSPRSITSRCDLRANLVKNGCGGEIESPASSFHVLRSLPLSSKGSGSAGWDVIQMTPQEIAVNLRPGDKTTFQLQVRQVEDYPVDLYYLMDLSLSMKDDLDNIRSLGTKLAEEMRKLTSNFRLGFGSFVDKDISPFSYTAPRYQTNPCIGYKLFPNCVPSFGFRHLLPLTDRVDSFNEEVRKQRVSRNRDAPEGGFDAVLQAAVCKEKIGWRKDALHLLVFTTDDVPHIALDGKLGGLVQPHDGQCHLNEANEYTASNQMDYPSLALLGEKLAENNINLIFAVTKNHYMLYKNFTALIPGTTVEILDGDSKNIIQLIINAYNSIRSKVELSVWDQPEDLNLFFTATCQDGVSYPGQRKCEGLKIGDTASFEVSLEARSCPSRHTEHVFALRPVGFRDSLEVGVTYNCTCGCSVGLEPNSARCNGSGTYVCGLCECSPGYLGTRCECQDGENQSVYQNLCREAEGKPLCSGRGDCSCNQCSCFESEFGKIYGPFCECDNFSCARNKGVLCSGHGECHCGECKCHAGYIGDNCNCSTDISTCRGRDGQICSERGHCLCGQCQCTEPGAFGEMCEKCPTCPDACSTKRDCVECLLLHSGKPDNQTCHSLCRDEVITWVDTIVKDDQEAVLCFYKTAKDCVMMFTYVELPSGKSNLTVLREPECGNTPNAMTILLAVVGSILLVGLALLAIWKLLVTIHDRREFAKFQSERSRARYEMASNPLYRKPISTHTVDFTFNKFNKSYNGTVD

B1: FN-RDG (EETI-based polypeptide with a scrambled RDG sequence, negative control) (peptide)
chain: GCVTGRDGSPASSCSQDSDCLAGCVCGPNGFCG
notes: Inferred; also called scrambled FN-RDG; FN-RDG2
On to B1, for which the binding result is given as “no binding (tested: 50 nM)” in assay [1]; “no binding (tested: 50 nM)” in assay [2]; “no binding (tested: 50 nM)” in assay [3]; “no binding (tested: 50 nM)” in assay [4]; “no binding” in assay [5].
The term IC50 denotes the point on the concentration scale where inhibition reaches its midpoint. QCESGPCCRNCKFLKEGTICKRARGDDMDDYCNGKTCDCPRNPHKGPAT (ligand, ends and bridges not checked; cysteine pairing not given here) [echistatin (unlabeled)] had an IC50 in assay [6] of 4.9 nM. In [7], the “U87MG cell adhesion to vitronectin, IC50” value came to 5.8 nM. Also, the “adhesion (IC50; nM) of K562-αvβ3 cells to vitronectin-coated wells” value (shortened to “adhesion (IC50; nM) of K562-αvβ3 cells”) in [8] turned out to be 3.2 nM.
{DOTA}-GCPQGRGDWAPTSCSQDSDCRAGCVCGPNGFCG (cysteine pairing not given here, also called Cu-DOTA-knottin 2.5D) [DOTA-conjugated knottin peptide 2.5D] registered an IC50 in [9] of roughly 20 nM.
The Kd is a measure of binding affinity in units of concentration. Take GCPQGRGDWAPTSCKQDSDCRAGCVCGPNGFCG [2.5D (yeast-displayed EETI-based variant)]: the Kd in [10] is roughly 50 nM.

B2: Miniprotein 2.5D (synthetic, soluble) (peptide)
chain: GCPQGRGDWAPTSCSQDSDCRAGCVCGPNGFCG
notes: also called knottin peptide 2.5D; RGD-miniprotein 2.5D
Regarding B2, the half-maximal inhibitory concentration (IC50) was 19 nM in assay [5] and 16 nM in [11].
In assay [9], {DOTA}-GCPRPRGDNPPLTCSQDSDCLAGCVCGPNGFCG (cysteine pairing not given here) [DOTA-conjugated knottin peptide 2.5F] showed an IC50 of roughly 20 nM.
Consider GCTGRGDSPASSKCKQDSDCLAGCVCGPNGFCG [RGD-EETI #2 (yeast-displayed)], for which, in assay [12], the “affinity relative to RGD-EETI #3” value is roughly 0.5 fold.

B3: synthetic AgRP peptide 7C (without epitope tags) (peptide)
chain: GCVRLHESCLGQQVPCCDPAATCYCYGRGDNDLRCYCR
notes: also called AgRP Clone 7C; Agouti peptide 7C
Take B3: the IC50 in assay [13] is 23 nM; in assay [14], 22 nM.
On to {DOTA}-GCVTGRGDSPASSCSQDSDCLAGCVCGPNGFCG (cysteine pairing not given here) [DOTA-conjugated FN-RGD2], for which, in assay [9], the IC50 is roughly 400 nM.
With GCTIGRGDWAPSECKQDSDCLAGCVCGPNGFCG [1.5B (yeast-displayed EETI-based variant)], in assay [10], the Kd is roughly 50 nM.
Take GCHVGRGDWAPEECKQDSDCQAGCVCGPNGFCG [2.5A (yeast-displayed EETI-based variant)]: the Kd in assay [10] is roughly 50 nM.

B4: recombinant AgRP peptide 7C (FLAG and hexahistidine tagged) (peptide)
chain: DYKDDDDKGCVRLHESCLGQQVPCCDPAATCYCYGRGDNDLRCYCRHHHHHH
Turning to B4, the IC50 in [15] came out at 23 nM. Further, the Kd was 1.8 nM in [16], greater than 100 nM in assay [17] and 2.4 nM in assay [18]. Also, the “adhesion (IC50; nM) of K562-αvβ3 cells” value in assay [8] is 12 nM.

B5: recombinant engineered AgRP peptide 7A (FLAG and hexahistidine tagged) (peptide)
chain: B4 chain with Y34S, R42V
notes: also called 7A (5E); 5E
As for B5, the dissociation constant (Kd) is 0.78 nM in [16], greater than 100 nM in assay [17] and 0.89 nM in assay [18]. Besides, the “fold improvement over the worst binder, 6C” value in [19] is 17 fold. The “adhesion (IC50; nM) of K562-αvβ3 cells” value in [8] stood at 61 nM.
{DOTA}-GCVTGRDGSPASSCSQDSDCLAGCVCGPNGFCG (also: cystine-knot disulfides, pairing not given here) [DOTA-conjugated FN-RDG2]: the binding result in assay [1], in assay [2], in [3] and in assay [4] was “no binding” each time.
Consider GCVTGRGDSPASSCKQDSDCLAGCVCGPNGFCG (also called FN-RGD; RDG-EETI #3) [RGD-EETI #3 (yeast-displayed)], for which, in [12], the Kd was 100 to 200 nM.
